First the molecules themselves.
B1: glmS ribozyme (parent)
chain: AUAAAAGCGCCAGAACUACAGAAAUGUAGUUGACGAGGAGGAGGUUUAUCGAAUUUUCGGCGGAUGCCUCCAAA

± gives the standard error. Variants at the floor of the assay were thinned out.

Holding throughout (conditions): with glucosamine-6-phosphate
Series [1] covers variants of B1. Briefly: self-cleavage kobs at 640 uM GlcN6P; higher = faster cleavage; RNA array. A digest of the protocol:
(§1)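 Over ~14 h at 37 °C, tiles were imaged as glucosamine-6-phosphate (40 μM to 10 mM) in HEPES/KCl/Mg(OAc)2 buffer flowed across sequenced MiSeq chips. The chips carried barcoded ribozyme variants transcribed in situ by E. coli RNA polymerase and tracked with a hybridised Cy3 probe. After normalisation to baseline and to non-cleaving reference variants, one- or two-exponential decay fits of per-tile medians gave kobs. kcat and KM followed from weighted Michaelis–Menten fits across concentrations.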

In series [2] the parent is B1. Briefly: self-cleavage kobs at 2500 uM GlcN6P; higher = faster cleavage; RNA array. A digest of the protocol:
as §1

Series [3] covers variants of B1. Nature of the series: self-cleavage kobs at 10000 uM GlcN6P; higher = faster cleavage; RNA array. In outline: as §1

On to AUAAAAGCACCAGAACUACAGAAAUGUAGUUGACGAGGAGGGGGUUUAUCGGAUUUUCGGCGGAUGCCUCCAAA [G9A A42G A52G], for which the “self-cleavage kobs at 640 uM GlcN6P” value with glucosamine-6-phosphate [1] is below 1e-05 s⁻¹. AUAAACGCGCCAGAACUACAGAAAUGUAGUUGACUAUCAGGAGGUUUAUCGAAUUUUCGGCGGAUGCCUCCAAA [A6C G35U G37U G38C]: in the series with glucosamine-6-phosphate [1], the “self-cleavage kobs at 640 uM GlcN6P” value is below 1e-05 s⁻¹. Consider AUAAAAGCGCCAGAACUACAGAAAUGUAGUUGAAGAGGAGGAGGUGUAUCGAAUUUUCGGCCGAUGCCUCCAAA [C34A U46G G62C], for which the “self-cleavage kobs at 640 uM GlcN6P” value in the series with glucosamine-6-phosphate [1] was below 1e-05 s⁻¹. In the case of AUAAAAGCGCCUUAACUACAGAAAUGUAGUUGACGAGGAGGAGGUGUAUCGAAUUUUCGGCGGAUGCCUCCAAA [A12U G13U U46G], in the series with glucosamine-6-phosphate [1], the “self-cleavage kobs at 640 uM GlcN6P” value was below 1e-05 s⁻¹.

AUAAAAGCGCCAGAACUACAGAAAUGUAUUGGACGAGGAGGAGGUUGAUCGAAUUUUCGGCGGAUGCCUCAAAA [G29U U31G U47G C71A]: the “self-cleavage kobs at 640 uM GlcN6P” value with glucosamine-6-phosphate [1] was 9.8e-05 ± 3.6e-05 s⁻¹.

For the variant AUAAAAGCGCCAGAACUACAGAAAUGUAUUUGACGAGGAAGAGGUUUAUCGAAUUUUCGGCGGAUGCCUUCAAA [G29U G40A C70U], the “self-cleavage kobs at 640 uM GlcN6P” value with glucosamine-6-phosphate [1] was found to be 3.68e-05 ± 1.2e-05 s⁻¹. Consider AUAAAAGCACCAGAACUACAGAAAUGUAGUUGACGAGGAGGAGCUUUAUCGAGUUUACGGCGGAUGCCUCCAAA [G9A G44C A53G U57A], for which the “self-cleavage kobs at 640 uM GlcN6P” value with glucosamine-6-phosphate [1] was below 1e-05 s⁻¹. In addition, the “self-cleavage kobs at 2500 uM GlcN6P” value with glucosamine-6-phosphate [2] is below 1e-05 s⁻¹. Besides, the “self-cleavage kobs at 10000 uM GlcN6P” value with glucosamine-6-phosphate [3] was below 1e-05 s⁻¹.

As to AUAAAAGAGACAGAACUACAGAAAUGUAGUUGACGAGGAGGGGGUUUAUCGAAUUUUCGUCGGAUGCCUCCAAA [C8A C10A A42G G60U], the “self-cleavage kobs at 640 uM GlcN6P” value with glucosamine-6-phosphate [1] was below 1e-05 s⁻¹. The “self-cleavage kobs at 2500 uM GlcN6P” value with glucosamine-6-phosphate [2] is below 1e-05 s⁻¹. For the variant AUAAAAGCGCCAGAACUACAGAAAUGUAGUUGACGAUGAGCAGGUUUAUCGAAUUUUCGUCGGAUGCCUCCAAA [G37U G41C G60U], the “self-cleavage kobs at 640 uM GlcN6P” value in the series with glucosamine-6-phosphate [1] is below 1e-05 s⁻¹. As for AUAAAAGCGCCACAACUACAGAAAUGUAGUUGACGAUGAGGAGGUUUAUCGAAUUUUCGUCGGAUGCCUCCAAA [G13C G37U G60U], the “self-cleavage kobs at 640 uM GlcN6P” value with glucosamine-6-phosphate [1] was below 1e-05 s⁻¹. On to AUAAAAGCGCCUGAACUACAGAAAUGUAGUUGACGAGGAGGAGCUUUUUCGAAUUUUGGGCGGAUGGCUCUAAA [A12U G44C A48U C58G C67G C71U], for which the “self-cleavage kobs at 640 uM GlcN6P” value with glucosamine-6-phosphate [1] was below 1e-05 s⁻¹. In the series with glucosamine-6-phosphate [2], the “self-cleavage kobs at 2500 uM GlcN6P” value is below 1e-05 s⁻¹. Regarding AUAAAAGAGCCCGAACUACAGAAAUGUAGUUGUCGAGGAGGAGGUUUAUCGAAUUUUCGGCGGGUGCCUCCAAA [C8A A12C A33U A64G], the “self-cleavage kobs at 640 uM GlcN6P” value with glucosamine-6-phosphate [1] is below 1e-05 s⁻¹. In the series with glucosamine-6-phosphate [2], the “self-cleavage kobs at 2500 uM GlcN6P” value was below 1e-05 s⁻¹.

Turning to AUAAAAGCGCCAGAAUUACAGAAAUGUAGUUGACGAGGAGGAGGUCUAUUGAAUUUUCGGCGGAUGCCUCCAAA [C16U U46C C50U], the “self-cleavage kobs at 640 uM GlcN6P” value in the series with glucosamine-6-phosphate [1] was below 1e-05 s⁻¹. For the variant AUAAACGCGCCAGAAUUACAGAAAUGUAGUUGACGAGGAGGAGGUUUAUCGAAUUUUCGUCGGAUGCCUCCAAA [A6C C16U G60U], in the series with glucosamine-6-phosphate [1], the “self-cleavage kobs at 640 uM GlcN6P” value is below 1e-05 s⁻¹. Moreover, the “self-cleavage kobs at 2500 uM GlcN6P” value in the series with glucosamine-6-phosphate [2] was below 1e-05 s⁻¹. Consider AUAAAAGCGCCAGAACUACAGAAAUGUAGUUGACGAGGAGGAGGUUUAUCGGAUUUUCGGCGGAUGCCGUCAAA [A52G U69G C70U], for which the “self-cleavage kobs at 640 uM GlcN6P” value in the series with glucosamine-6-phosphate [1] was found to be 0.000107 ± 3.1e-05 s⁻¹. In addition, the “self-cleavage kobs at 2500 uM GlcN6P” value with glucosamine-6-phosphate [2] is 7.59e-05 ± 1.7e-05 s⁻¹. The matching figures for AUAAAAGCGCCAGAACUACAGAAAUGUAGUUGACGAGUAGGAGGUUUAUAGAAUUUUCGGCGGAUGCCUCCAAA [G38U C50A]: below 1e-05 s⁻¹ and below 1e-05 s⁻¹. As for AUAAAAACGCCAGAACUACAGAAAUGUAGUUGACGAGGAGGAAGUUUAUCGAAUAUUCGUCGGAUGUCUGCAAA [G7A G43A U55A G60U C67U C70G], in the series with glucosamine-6-phosphate [1], the “self-cleavage kobs at 640 uM GlcN6P” value was below 1e-05 s⁻¹.

With AUAAAAGCGCCAUAACUACAGAAAUGUAGUUGAGGAGGAGGAGGCUAAUCGAAUUUUCGGCGGAUGCCUCCAAA [G13U C34G U45C U47A], the “self-cleavage kobs at 640 uM GlcN6P” value with glucosamine-6-phosphate [1] was below 1e-05 s⁻¹. The “self-cleavage kobs at 2500 uM GlcN6P” value with glucosamine-6-phosphate [2] is below 1e-05 s⁻¹.

In the case of AUAAAAGCGCUAGAACUACAGAAAUGUAGUUGACGAGGAGUAGGCUUAUCGAAUUUUCGGCGGAUGCCUCCAAA [C11U G41U U45C], the “self-cleavage kobs at 640 uM GlcN6P” value with glucosamine-6-phosphate [1] was below 1e-05 s⁻¹. As for AUAAAAGCGCCAGAACUACAGAAAUGUAGUUGACGAGGAGGAGGUUUAUCGAAUUUUCGGCGGAUGCAGCCAAA [C68A U69G], in the series with glucosamine-6-phosphate [1], the “self-cleavage kobs at 640 uM GlcN6P” value was 9.62e-05 ± 3.5e-05 s⁻¹.

Turning to AUAAAAGCGCCAGAACUACAGAAAUGUAGUUGACUAGGAGGGGGUUUAUCGAAUAUUCGGCGGAUGCCUCCAAA [G35U A42G U55A], the “self-cleavage kobs at 640 uM GlcN6P” value with glucosamine-6-phosphate [1] is below 1e-05 s⁻¹. Consider AUAAAAGCGCCACAACUACAGAAAUGUAUUUGACGAGGAGGAGGUUUAUCGAAUUUUCGGCGGAUGCCUCGAAA [G13C G29U C71G], for which the “self-cleavage kobs at 640 uM GlcN6P” value in the series with glucosamine-6-phosphate [1] was below 1e-05 s⁻¹.

For AUAAAAGCGCCAGAACUACAGAAAUGUAGUUGACGGGGAGCAGGUUUAUCGAAUUUUCGGCGGAUGCCUCCAAA [A36G G41C], in the series with glucosamine-6-phosphate [1], the “self-cleavage kobs at 640 uM GlcN6P” value is below 1e-05 s⁻¹. Besides, in the series with glucosamine-6-phosphate [3], the “self-cleavage kobs at 10000 uM GlcN6P” value is below 1e-05 s⁻¹. Consider AUAAAAGCGCCAGAAUUACAGAAAUGUAGUUGACGAGGAGGUGGUUUAUCGAAUUUUACCCGGAUGCCUCCAAA [C16U A42U C58A G59C G60C], for which, in the series with glucosamine-6-phosphate [1], the “self-cleavage kobs at 640 uM GlcN6P” value is below 1e-05 s⁻¹.

AUAAAAGGGCCAGAACUACAGAAAUGUAGUUGACGAGGUGGAGGUGUAUCGAAUUUUCGGCGGAUGCCGCCAAA [C8G A39U U46G U69G]: the “self-cleavage kobs at 640 uM GlcN6P” value with glucosamine-6-phosphate [1] is below 1e-05 s⁻¹. The “self-cleavage kobs at 2500 uM GlcN6P” value with glucosamine-6-phosphate [2] was below 1e-05 s⁻¹. As to AUAAAAGCGCCAGGACUACAGAAAUGUAGUUGACGAGGAGGAGGUUUAUCGUAUUUUCGACGGAUGCCUCCAAA [A14G A52U G60A], the “self-cleavage kobs at 640 uM GlcN6P” value with glucosamine-6-phosphate [1] was below 1e-05 s⁻¹.

The values above are taken from the supplement of paper PMC7125110.
